In general, stoichiometry N refers to the number of molecules, sites or subunits per partner or assembly.

In this experiment the target is YjfP (K. pneumoniae). The experiment is described as follows: crystal structure.

Substance YjfP (enzyme) returned a stoichiometry N of 2.
